The record followed here is article PMC5059666 (2016).

The target of experiment [1] is feline IgM-Fc pentamer (FLAG-tagged feline IgM-Fc with Myc-tagged feline IgJ). Nature of the experiment: immunoblotting (non-reducing conditions) of IgM-Fc bound AIM, quantified using NIH ImageJ. Conditions: supernatant after a co-culture of feline Fc-expressing HEK293T cells and cells expressing wild-type, chimeric, or mutant feline AIM; parent: est. 1; read off a plot.

Experiment [2] addresses feline IgM-Fc pentamer (FLAG-tagged feline IgM-Fc with Myc-tagged feline IgJ) (cat). The experiment in a line: SPR; Biacore T100, 25 °C; IgM-Fc pentamers amine-coupled on a CM5 chip (1000 RU), BSA reference cell; AIM as analyte 50 nM to 5 μM in D-PBS(-) pH 7.4, single-cycle kinetics, heterogeneous ligand model.
In experiment [3] the target is T1, mouse IgM-Fc pentamer (FLAG-IgM-Fc with IgJ-Myc) (mouse, UniProt P01872 1-454; P01592 22-159).
T1 chain 1: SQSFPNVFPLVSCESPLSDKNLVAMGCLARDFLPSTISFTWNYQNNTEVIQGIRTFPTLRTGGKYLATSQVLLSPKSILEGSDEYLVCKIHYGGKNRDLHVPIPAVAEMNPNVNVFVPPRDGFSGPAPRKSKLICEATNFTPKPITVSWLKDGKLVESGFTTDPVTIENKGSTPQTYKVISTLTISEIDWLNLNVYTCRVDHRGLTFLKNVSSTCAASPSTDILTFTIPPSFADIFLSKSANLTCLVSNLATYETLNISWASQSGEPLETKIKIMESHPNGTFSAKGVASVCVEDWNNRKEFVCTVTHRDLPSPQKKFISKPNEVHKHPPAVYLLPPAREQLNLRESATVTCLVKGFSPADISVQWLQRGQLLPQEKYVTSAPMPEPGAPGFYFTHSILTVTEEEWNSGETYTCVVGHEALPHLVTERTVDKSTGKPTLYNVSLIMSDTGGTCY
T1 chain 2: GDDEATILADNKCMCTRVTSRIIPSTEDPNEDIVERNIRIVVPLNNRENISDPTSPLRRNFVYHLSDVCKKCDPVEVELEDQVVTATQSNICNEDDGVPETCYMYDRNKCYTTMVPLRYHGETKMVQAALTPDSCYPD
Nature of the experiment: SPR. A general note: Surface plasmon resonance follows binding to a sensor surface in real time, without labels.

In experiment [4] the target is T1, mouse IgM-Fc pentamer (FLAG-IgM-Fc with …). Nature of the experiment: SPR.
Experiment [5] concerns the target mouse IgM-Fc pentamer (FLAG-IgM-Fc with IgJ-Myc) (mouse) (UniProt P01872). The experiment in a line: SPR; Biacore T100, 25 °C; IgM-Fc pentamers amine-coupled on a CM5 chip (1000 RU), BSA reference cell; AIM as analyte 50 nM to 5 μM in D-PBS(-) pH 7.4, single-cycle kinetics, heterogeneous ligand model.

In the case of “recombinant feline AIM (3-SRCR) (from UniProt A0A1E1GEY0) R299K; R300I; R338K”, in experiment [1], the ratio to parent amounted to 0.58.

Take “recombinant feline AIM (4-SRCR) (from UniProt A0A1E1GEY0 20-355) (natural protein)”: in experiment [2], the off-rate (koff) (commonly the rate constant with which the complex falls apart) came to 4.38e-05 s⁻¹ and the kon (usually a measure of how fast the partners come together) came to 9.52 M⁻¹ s⁻¹.

B1: recombinant feline AIM (3-SRCR) (natural protein)
chain: SFSRVRLVGGDHRCEGRVELQQDDEWVTVCDDYWNMDSVAVLCRELGCGAARKTMSGTVYGPVTPKDQKVFIHLFRCNGIEESLSQCEREDAIGCSHVEDAGAVCEPIYTGPGILGPESVRLADGPGRCQGRVEVKFRGEWSSVCQAGWSFAAAKVVCRQLGCGRATLTRRGCNKATQGQGAIWQRKASCSGQEVSLQDCLSEVWEHNCTHNEDVWVECEDPFALKLVGGRSHCEGRLEVLHKGEWGSVCDDGWGQDADRVVCRQLGCGQPLSPPVKVRRRFGPGVGRIWLDDVKCSGKEPSLEQCLHRSWGYHNCNHREDVAVVCEEQQSGLPDA
Turning to B1, the Kd (in general, the equilibrium constant for the complex coming apart) in experiment [3] came out at 14.6 nM; in experiment [2] it was 5.97 nM. In addition, the dissociation rate constant (koff) was 5.65e-05 s⁻¹ in experiment [2] and 0.000106 s⁻¹ in experiment [4]. Besides, the kon in experiment [2] was determined as 9460 M⁻¹ s⁻¹.

B2: recombinant mouse AIM (natural protein)
chain: ESPTKVQLVGGAHRCEGRVEVEHNGQWGTVCDDGWDRRDVAVVCRELNCGAVIQTPRGASYQPPASEQRVLIQGVDCNGTEDTLAQCELNYDVFDCSHEEDAGAQCENPDSDLLFIPEDVRLVDGPGHCQGRVEVLHQSQWSTVCKAGWNLQVSKVVCRQLGCGRALLTYGSCNKNTQGKGPIWMGKMSCSGQEANLRSCLLSRLENNCTHGEDTWMECEDPFELKLVGGDTPCSGRLEVLHKGSWGSVCDDNWGEKEDQVVCKQLGCGKSLHPSPKTRKIYGPGAGRIWLDDVNCSGKEQSLEFCRHRLWGYHDCTHKEDVEVICTDFDV
In experiment [5], B2 came in with a dissociation constant (Kd) of 5820 nM, a koff of 0.0223 s⁻¹ and a kon of 3830 M⁻¹ s⁻¹.
